Molecular target: CM19XA (UniProt P15391)
Test: SEC; ENrich SEC 650 column on an NGC system, running buffer PBS, peak positions compared with BioRad size exclusion standards; after Ni-NTA purification

stoichiometry N: 2
Substance: CM19XA (from UniProt P15391 20-291; Q9Y624 28-238)

Reference: paper PMC8962422
